Data reported in paper PMC12793716, “Linked dimers of the AAA+ ATPase Msp1 reveal energetic demands and mechanistic plasticity for substrate extraction from lipid bilayers” (Febs Letters, 2025).
Changes are numbered by the printed parent chain. Names and notes keep the numbering of the source.

B1: His6‐TEV‐Msp1 E193Q Monomer (enzyme, UniProt P28737 33-362, looked up)
chain: DVESGPLSGKSRESKAKQSLQWEKLVKRSPALAEVTLDAYERTILSSIVTPDEINITFQDIGGLDPLISDLHESVIYPLMMPEVYSNSPLLQAPSGVLLYGPPGCGKTMLAKALAKESGANFISIRMSSIMDKWYGESNKIVDAMFSLANKLQPCIIFIDQIDSFLRERSSTDHEVTATLKAEFMTLWDGLLNNGRVMIIGATNRINDIDDAFLRRLPKRFLVSLPGSDQRYKILSVLLKDTKLDEDEFDLQLIADNTKGFSGSDLKELCREAALDAAKEYIKQKRQLIDSGTIDVNDTSSLKIRPLKTKDFTKKLRMDATSTLSSQPLD
notes: Msp1 with the Walker B mutation E193Q, soluble construct: deletion of the first 32 residues as stated for the soluble constructs; A TEV site follows the His6 tag; No Strep tag; also called EQ; EQ monomer; source: E. coli BL21 pRIL, purified (Ni-NTA)
B2: His6‐WT‐EQ‐2xStrep Dimer (covalently linked Msp1 dimer, soluble) (enzyme)
chain: DVESGPLSGKSRESKAKQSLQWEKLVKRSPALAEVTLDAYERTILSSIVTPDEINITFQDIGGLDPLISDLHESVIYPLMMPEVYSNSPLLQAPSGVLLYGPPGCGKTMLAKALAKESGANFISIRMSSIMDKWYGESNKIVDAMFSLANKLQPCIIFIDEIDSFLRERSSTDHEVTATLKAEFMTLWDGLLNNGRVMIIGATNRINDIDDAFLRRLPKRFLVSLPGSDQRYKILSVLLKDTKLDEDEFDLQLIADNTKGFSGSDLKELCREAALDAAKEYIKQKRQLIDSGTIDVNDTSSLKIRPLKTKDFTKKLRMDATSTLSSQPLDASGSGGSEASASAGAAGSGDGSGSGGSEGGTSGATDVESGPLSGKSRESKAKQSLQWEKLVKRSPALAEVTLDAYERTILSSIVTPDEINITFQDIGGLDPLISDLHESVIYPLMMPEVYSNSPLLQAPSGVLLYGPPGCGKTMLAKALAKESGANFISIRMSSIMDKWYGESNKIVDAMFSLANKLQPCIIFIDQIDSFLRERSSTDHEVTATLKAEFMTLWDGLLNNGRVMIIGATNRINDIDDAFLRRLPKRFLVSLPGSDQRYKILSVLLKDTKLDEDEFDLQLIADNTKGFSGSDLKELCREAALDAAKEYIKQKRQLIDSGTIDVNDTSSLKIRPLKTKDFTKKLRMDATSTLSSQPLD
notes: Msp1, subunit 1, wild type, deletion of the first 32 residues to remove the TMD; 35-residue flexible linker between the two subunits; Msp1, subunit 2, Walker B mutant E193Q, deletion of the first 32 residues to remove the TMD; Two Msp1 subunits on one chain; on SEC a mixture of the single chain (dimer) and the pseudohexamer (three chains); also called WT‐EQ dimer; source: E. coli BL21 pRIL, …
B3: His6‐EQ‐WT‐2xStrep Dimer (covalently linked Msp1 dimer, soluble) (enzyme)
chain: B2 chain with E161Q, Q526E
notes: Msp1, subunit 1, Walker B mutant E193Q, deletion of the first 32 residues to remove the TMD; 35-residue flexible linker between the two subunits; Msp1, subunit 2, wild type, deletion of the first 32 residues to remove the TMD; Two Msp1 subunits on one chain; on SEC a mixture of the single chain (dimer) and the pseudohexamer (three chains); also called EQ‐WT dimer; source: E. coli BL21 pRIL, …

Target: the molecule itself
Assay: SEC; analytical SEC, S200 Increase 3.2/300 GL, 20 mM Tris pH 7.5, 100 mM NaCl, 0.5 mM TCEP; 0.1 mL of 1.2 mg/mL (5 uM hexamer/pseudohexamer) Msp1 with 2 mM ATP, 2 mM MgCl2; 0.1 mL/min

Protein | stoichiometry N
B1 | 6
B2 | 3
B3 | 3
